The source of these data is publication PMC6017673, “Functional Characterization of the Saccharomyces cerevisiae Equilibrative Nucleoside Transporter 1 (ScENT1)” (Molecules : A Journal of Synthetic Chemistry and Natural …, 2018).

Where a chain is given by its changes, count along the chain named. Names and notes keep the numbering of the source.

Holding throughout (assay): purified protein
Substrate in series [1]: O=c1ccn([C@@H]2O[C@H](CO)[C@@H](O)[C@H]2O)c(=O)[nH]1
The format is biochemical, Saccharomyces cerevisiae. The settings on record: labelled compound; purified transporter in proteoliposomes.

Substrate in series [2]: Nc1ccn([C@@H]2O[C@H](CO)[C@@H](O)[C@H]2O)c(=O)n1
The settings on record: labelled compound; purified transporter in proteoliposomes.

Substrate in series [3]: O=c1ccn([C@@H]2O[C@H](COP(=O)(O)OP(=O)(O)OP(=O)(O)O)[C@@H](O)[C@H]2O)c(=O)[nH]1
The series is classed as biochemical, Saccharomyces cerevisiae. The settings on record: labelled compound, purified transporter in proteoliposomes.

B1: ScENT1 (FUN26) (Saccharomyces cerevisiae S288C) (protein)
chain: MSTSADTDTIKKPILAVPEPALADTHSEEISRSGEEHESENNEHSDEEGDNYSEREQSVSTEPLDTLPLRKKLKNLSYITFFAIGIGLLWPWNCILSASQYFKHDIFKDTSIWAKIFTSSMMSFSTISSMLFNIYLAKRQYKYSRRVINGLVWEIIVFTVMCFFTILHFLLPKWFNFMFIMMLVVISSMGTAMTQNGIMAIANVFGSEYSQGVMVGQAVAGVLPSLVLFALAFIENSSVSTTGGILLYFFTTTLVVTICVVMFSVSKISRKVNENWNVEDGHITDVLLGSLRSNEEEIRIVGRIDQMEDEDHRRTNGTRDDNDEGEELQLKVPFEVLFAKLKYLVLSIFTTFVVTLVFPVFASATYVTGLPLSNAQYIPLIFTLWNLGDLYGRVIADWPMFRDQKFTPRKTFIYSLLRVAAIPLFLMFTAITSSSSGDEEHNGSVIVDLCYMLLQFLFGVTNGHVISMSFMKVPEQLDNDDEKEAAGGFTNIFVSTGLALGSIISYVFVFIIDFIIR
notes: full-length, poly-His tagged (TALON, SEC), overexpressed in S. cerevisiae W303-delta-pep4, DDM-solubilised, reconstituted in proteoliposomes
For B1, the values for the Michaelis-Menten constant (Km) in “purified protein [1]” and in “purified protein [2]” were 0.327 µM and 0.195 µM, respectively.

B2: ScENT1 (FUN26) (Saccharomyces cerevisiae S288C; L390A) (protein)
chain: B1 chain with L390A
notes: as for B1
In the case of B2, the Km is 2.92 µM in the series “purified protein [3]” (extrapolated beyond tested concentrations, not saturated) and 0.215 µM in the series “purified protein [1]”.

B3: ScENT1 (FUN26) (Saccharomyces cerevisiae S288C; F249I) (protein)
chain: B1 chain with F249I
notes: as for B1
Turning to B3, the results for the Michaelis-Menten constant (Km) in the series “purified protein [3]” and in the series “purified protein [2]” were 0.13 µM and 0.452 µM, respectively.

A word on the Km: it is the concentration of substrate that gives half-maximal velocity.
